The subject of series [1] is T1, EefR (Escherichia coli ATCC 35218 (35218m, acrB-deficient)), ORF:f1625a7f.
T1 sequence: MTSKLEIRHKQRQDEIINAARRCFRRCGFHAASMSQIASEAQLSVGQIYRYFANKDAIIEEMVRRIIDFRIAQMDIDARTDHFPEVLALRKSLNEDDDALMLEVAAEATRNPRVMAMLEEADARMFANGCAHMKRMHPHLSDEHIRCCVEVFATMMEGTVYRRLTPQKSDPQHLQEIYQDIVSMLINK
The experiment in a line: EMSA. Particulars: EMSA in binding buffer (Beyotime kit, composition not given), 25 °C, 20 min; 6% native PAGE at 4 °C; salt and pH not stated. (A gel shift assay detects complexes by their altered migration in electrophoresis.)

The test system is the same in series [2]. The experiment in a line: competition. To be noted: EMSA in binding buffer (Beyotime kit, composition not given), 25 °C, 20 min; 6% native PAGE at 4 °C; salt and pH not stated.

In the case of “CACAATCTCTTCATTATCAGAATATGCACCATGAATAAGATAAAAATACTTTCCATTACTTTGGAGAAACGTATAATCAGCAAAAATGAGAACGATCATTCTCACCAAGTGATAGGCCAGGAGACAGAA (double strand) [P1 (129 bp eefR upstream probe)]”, the binding result in series [1] is “binds”.
With “CACAATCTCTTCATTATCAGAATATGCACCATGAATAAGATAAAAATACTTTCCATTACTTTGGAGAAACGTATAATCAGCAAAAATGAGAACGATCATTCTCACCAAGTGATAGGCCAGGAGACAGAA (double strand) [P1 cold probe]”, the binding result in series [2] is on record as “binds”.
For the sequence “CACAATCTCTTCATTATCAGAATATGCACCATGAATAAGATAAAAATACTTTCCATTACTTTGGAGAAACGTATAATCAGCAAAAATGAGAACGATCATCCTCACCAAGTGATAGGCCAGGAGACAGAA (double strand) [M1 (one base mutated, MT-1)]”, the binding entry in series [1] is “no binding”.
In the case of “ACAGAATTAACCAATAGCGGGGGATATTAATCCCCCTTATTTCATTGCGAAATTCATTTCGCGATGCGGGTTCGTTATAACTGAATATCCCTGACATATCCTCATTAATTTTAATGAGGAGGGTATTTCTCACCCTGGAGAAAATA (double strand) [nonspecific probe (148 bp)]”, the binding result in series [2] is on record as “no binding”.
